Measured values reported in PMC2133122.
“And” between values parts separate entries of the source, which are not always exact repeats. Identical values can stand only once.

Assays:
[1] = biological target: mutant mtHsp70 encoded by the allele ssc1-2 (Ssc1-2p) (S. cerevisiae (endogenous in yeast mitochondria)) (UniProt P0CS90); assay: co-IP
[2] = biological target: mitochondrial Hsp70 (mtHsp70, Ssc1p), wild type (S. cerevisiae (endogenous in yeast mitochondria)) (UniProt P0CS90); assay: co-IP

| fold efficiency of binding against wild-type mtHsp70 [1] | fold reduction of complex formation with mtHsp70 against authentic Tim44 [2] | percent reduction of complex formation with mtHsp70 against authentic Tim44 [2] | Substance |
| --- | --- | --- | --- |
| > 4 fold |  |  | Su9-DHFR, imported into mitochondria (from UniProt P00375 1-187) |
|  | 3 fold and 4 fold | 70% | Tim44Δ18 (Tim44 with a deletion of residues 185–202) (natural protein) |
